Here are results for two molecules from US20040228866A1, “Suppressor genes” (Ludwig Institute for Cancer Research, priority 2000, published 2004).

In test [1] the test system is Saos-2 cells. The test is described as follows: Apoptosis by flow cytometry (CD20-gated, sub-G1 DNA content) in transfected Saos-2 cells. As to conditions: for effect on apoptotic function of p53 mutants 181L and 181C: FIG. 6A; for increase in percentage of cells that die of apoptosis with E2F1: co-expression with E2F1, FIG. 4B; for apoptotic function of p63γ and p73α: co-expression, FIG. 15; for apoptosis when expressed alone: no p53 co-expressed; for effect on apoptosis induced by p53H175-L: transcriptionally inactive, mitochondria-targeted mutant p53, FIG. 9A. In kind it is cell-based. On the procedure: Apoptosis was identified by the expression of the co-transfected cell surface marker CD20, as described in Samuels-Lev et al. (Mol. Cell 8:781-94, 2001, herein incorporated by reference).
The number of apoptotic cells was determined using the methods described in Example 6.
Cells (10^6) were plated 24-48 hours prior to transfection in 10 cm plates. Cells were grown in DMEM supplemented with 10% FCS and transfected with 2 μg of a plasmid expressing CD20 as a transfection marker. Increasing amounts of ASPP1 and ASPP2 were transfected (7.5 μg, 15 μg and 25 μg). 36 hours after the transfection, both attached and floating cells were harvested and analysed using flow cytometry as follows. The transfected cells were gated based on the expression of CD20. The percentage of apoptotic cells was measured by the accumulation of cells with a sub-G1 DNA content derived from at least three individual experiments.
The transfected cells were analyzed by flow cytometry as described in Example 6.
(In flow cytometry, cells or beads pass a laser one at a time.)

In test [2] the target is T1, p73α (Homo sapiens, UniProt O15350).
T1 construct: expressed in transfected cells; host or cells: H1299 and Saos-2; part of the results from in vitro translation
T1 sequence (O15350 1-636): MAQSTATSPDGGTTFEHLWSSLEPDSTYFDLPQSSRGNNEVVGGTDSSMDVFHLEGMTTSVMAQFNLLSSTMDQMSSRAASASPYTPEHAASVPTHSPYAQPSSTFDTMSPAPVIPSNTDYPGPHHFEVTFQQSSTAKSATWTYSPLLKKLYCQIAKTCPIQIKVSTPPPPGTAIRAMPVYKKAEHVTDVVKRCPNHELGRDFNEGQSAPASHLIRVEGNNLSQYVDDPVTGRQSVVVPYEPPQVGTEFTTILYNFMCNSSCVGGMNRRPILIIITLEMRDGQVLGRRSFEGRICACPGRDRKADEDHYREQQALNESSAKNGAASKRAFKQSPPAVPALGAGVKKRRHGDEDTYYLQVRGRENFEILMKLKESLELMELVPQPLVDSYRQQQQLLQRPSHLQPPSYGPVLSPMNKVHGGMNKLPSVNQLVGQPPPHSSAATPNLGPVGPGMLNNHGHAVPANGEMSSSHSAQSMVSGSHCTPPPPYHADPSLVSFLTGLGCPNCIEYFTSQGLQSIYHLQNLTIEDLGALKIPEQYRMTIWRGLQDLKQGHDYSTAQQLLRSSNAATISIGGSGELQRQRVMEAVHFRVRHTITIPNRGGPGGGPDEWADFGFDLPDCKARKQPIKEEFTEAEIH
The test is described as follows: Transient luciferase reporter assay of p73α transactivation function. The class given is cell-based. The note with it: for stimulation of the transactivation function of p73α on the Bax promoter: Example 16, FIGS. 14A and 14B; for transactivation function of p73α on the mdm2 promoter: FIG. 14C. How it is done: (§1) To determine the amount of protein expression, Saos-2 cells (5×10^5) were plated 24 hours prior to transfection in 6 cm dishes. […] To determine the amount of gene activation, after transfection, the cells were lysed in Reporter Lysis Buffer 16-24 hours post-wash and assayed using the Luciferase Assay kit (Promega, Wis.). The fold activation of a particular reporter was determined by the activity of the transfected plasmid above the activity of vector alone.
(§2) The expression level of transfected proteins was detected using 40 μg of the respective lysates using the antibodies V5, DX.5410, DO1, 4A4 and p73. […] Results were derived from at least three independent experiments.
In general terms: Reporter assays use an easily measured gene product as a stand-in for the process of interest.

The target in test [3] is T2, p63γ (Homo sapiens, UniProt Q9H3D4).
T2 construct: expressed in transfected cells; host or cells: Saos-2
T2 sequence (Q9H3D4 1-487 isoform Q9H3D4-5): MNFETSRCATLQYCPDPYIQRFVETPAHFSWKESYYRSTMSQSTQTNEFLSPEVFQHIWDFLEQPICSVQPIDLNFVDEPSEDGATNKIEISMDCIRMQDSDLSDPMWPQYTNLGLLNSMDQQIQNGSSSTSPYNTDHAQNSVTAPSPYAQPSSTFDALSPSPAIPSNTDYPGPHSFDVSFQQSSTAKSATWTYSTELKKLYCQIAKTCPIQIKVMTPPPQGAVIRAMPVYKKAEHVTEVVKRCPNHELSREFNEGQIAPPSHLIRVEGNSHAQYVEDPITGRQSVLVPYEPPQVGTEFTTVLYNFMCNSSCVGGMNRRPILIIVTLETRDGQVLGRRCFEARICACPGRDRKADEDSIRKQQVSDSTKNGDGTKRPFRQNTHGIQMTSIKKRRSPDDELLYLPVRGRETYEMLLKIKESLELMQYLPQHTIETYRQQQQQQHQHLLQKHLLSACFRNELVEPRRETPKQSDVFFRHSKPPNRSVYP
Put plainly: Transient luciferase reporter assay of p63γ transactivation function. In kind it is cell-based. The note with it: FIG. 14C. How it is done:
as §1, §2

For test [4], the system named is U2OS and MCF7 cells. The test is described as follows: Apoptosis by FACS in U2OS and MCF7 cells expressing wild-type p53, with or without cisplatin. The note with it: no cisplatin. In kind it is cell-based, human. How it is done:
The transfected cells were gated, and the apoptotic cells identified by FACS as described in Example 6.
Before exposure to cisplatin (5 and 3 μg/ml respectively), U2OS and MCF7 cells were transfected with plasmids encoding HPV16 E6, iASPP, or 53BP2. Thirty hours later, cells were harvested and analysed as above.
Fragments from the 5′ ends of ASPP1, ASPP2 and iASPP cDNA were cloned into a mammalian expression vector in an antisense orientation and their ability to inhibit the protein synthesis determined in vitro. The antisense nucleic acid molecules were amplified by PCR on the respective plasmid clones using primers spanning the following nucleotide regions (relative to the initial ATG): −74 to 923; −253 to 839 and −37 to 536 for ASPP1, ASPP2 and iASPP respectively. The amplified segments were purified with the QIAquick PCR purification kit (QIAGEN) and ligated in the pcDNA3.1/V5-His TOPO vector (Invitrogen) according to the manufacturer's instructions.
U2OS and MCF-7 cells were transfected with the various expression plasmids prior to the treatment with cisplatin and analyzed using FACS as described above.
To determine the anti-apoptotic role of iASPP, both U2OS and MCF-7 cells were transfected with antisense iASPP and cells analyzed as described above. […] A small increase in apoptotic cells was consistently detected (FIG. 7D).

The target in test [5] is T3, p53 (Homo sapiens, UniProt P04637).
T3 construct: expressed in transfected cells
The test is described as follows: Co-immunoprecipitation with p53 in transfected Saos-2 cells. The class given is binding. How it is done:
The cells were lysed in NP40 lysis buffer and 1000 μg of lysate immunoprecipitated with antibodies to iASPP bound to Protein G beads.

T3 sequence (P04637 whole entry): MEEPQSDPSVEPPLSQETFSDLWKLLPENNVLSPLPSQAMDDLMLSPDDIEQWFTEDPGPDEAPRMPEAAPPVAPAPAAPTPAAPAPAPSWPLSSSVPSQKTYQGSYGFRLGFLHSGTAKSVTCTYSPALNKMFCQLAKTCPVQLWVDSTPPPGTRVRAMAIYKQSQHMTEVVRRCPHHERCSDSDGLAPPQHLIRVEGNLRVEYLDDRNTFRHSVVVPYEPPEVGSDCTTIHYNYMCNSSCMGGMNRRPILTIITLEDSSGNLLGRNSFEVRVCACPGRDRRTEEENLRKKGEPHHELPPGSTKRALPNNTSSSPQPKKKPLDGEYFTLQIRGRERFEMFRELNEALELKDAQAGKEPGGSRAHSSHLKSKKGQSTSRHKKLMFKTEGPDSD

B1: ASPP2: full length 1128 amino acid protein, SEQ ID NO: 4 (protein, listed as Homo sapiens)
chain: MMPMFLTVYLSNNEQHFTEVPVTPETICRDVVDLCKEPGESDCHLAEVWCGSERPVADNERMFDVLQRFGSQRNEVRFFLRHERPPGRDIVSGPRSQDPSLKRNGVKVPGEYRRKENGVNSPRMDLTLAELQEMASRQQQQIEAQQQLLATKEQRLKFLKQQDQRQQQQVAEQEKLKRLKEIAENQEAKLKKVRALKGHVEQKRLSNGKLVEEIEQMNNLFQQKQRELVLAVSKVEELTRQLEMLKNGRIDSHHDNQSAVAELDRLYKELQLRNKLNQEQNAKLQQQRECLNKRNSEVAVMDKRVNELRDRLWKKKAALQQKENLPVSSDGNLPQQAASAPSRVAAVGPYIQSSTMPRMPSRPELLVKPALPDGSLVIQASEGPMKIQTLPNMRSGAASQTKGSKIHPVGPDWSPSNADLFPSQGSASVPQSTGNALDQVDDGEVPLREKEKKVRPFSMFDAVDQSNAPPSFGTLRKNQSSEDILRDAQVANKNVAKVPPPVPTKPKQINLPYFGQTNQPPSDIKPDGSSQQLSTVVPSMGTKPKPAGQQPRVLLSPSIPSVGQDQTLSPGSKQESPPAAAVRPFTPQPSKDTLLPPFRKPQTVAASSIYSMYTQQQAPGKNFQQAVQSALTKTHTRGPHFSSVYGKPVIAAAQNQQQHPENIYSNSQGKPGSPEPETEPVSSVQENHENERIPRPLSPTKLLPFLSNPYRNQSDADLEALRKKLSNAPRPLKKRSSITEPEGPNGPNIQKLLYQRTTIAAMETISVPSYPSKSASVTASSESPVEIQNPYLHVEPEKEVVSLVPESLSPEDVGNASTENSDMPAPSPGLDYEPEGVPDNSPNLQNNPEEPNPEAPHVLDVYLEEYPPYPPPPYPSGEPEGPGEDSVSMRPPEITGQVSLPPGKRTNLRKTGSERIAHGMRVKFNPLALLLDSSLEGEFDLVQRIIYEVDDPSLPNDEGITALHNAVCAGHTEIVKFLVQFGVNVNAADSDGWTPLHCAASCNNVQVCKFLVESGAAVFAMTYSDMQTAADKCEEMEEGYTQCSQFLYGVQEKMGIMNKGVIYALWDYEPQNDDELPMKEGDCMTIIHREDEDEIEWWWARLNDKEGYVPRNLLGLYPRIKPRQRSLA
As for B1, the “percentage of apoptotic cells, co-expressed with p53” value in test [1] (Example 11, p53 alone […]%) was found to be 30%. Moreover, in test [1], the “effect on apoptotic function of p53 mutants 181L and 181C” value was “failed to enhance the apoptotic function of either p53 mutant”; the “increase in percentage of cells that die of apoptosis with E2F1” value was “only an additive increase”; the “apoptotic function of p63γ and p73α” value was “enhanced the apoptotic function of p63γ and p73α”; the “apoptosis when expressed alone” value is given as “lower level of apoptosis”. Further, the “effect on apoptosis induced by p53H175-L” value in test [1] was “failed to enhance the apoptotic function of p53H175-L”. Also, in test [2], the “stimulation of the transactivation function of p73α on the Bax promoter” value is recorded as 6 fold and the “transactivation function of p73α on the mdm2 promoter” value was “failed to stimulate”. For the same molecule, the “transactivation function of p63γ on the mdm2 promoter” value in test [3] is on record as “failed to stimulate”. Also, the “apoptosis on expression in cells with endogenous wild-type p53” value in test [4] is “induced apoptosis”. In test [5], the “interaction with p53 by immunoprecipitation and western blot” value is reported as “interact in vivo”.

B2: ASPP1: Apoptosis Stimulating Protein 1, protein of SEQ ID NO: 2, expressed from a transfected plasmid (protein, listed as Homo sapiens)
chain: MMPMILTVFLSNNEQILTEVPITPETTCRDVVEFCKEPGEGSCHLAEVWRGNERPIPFDHMMYEHLQIWGPRREEVKFFLRHEDSPTENSEQGGRQTQEQRTQRNVINVPGDKRTEYGVGNPRVELTLSELQDMAARQQQQIENQQQMLVAKEQRLHFLKQQERRQQQSISENEKLQKLKERVEAQENKLKKIRAMRGQVDYSKIMNGNLSAEIERFSAMFQEKKQEVQTAILRVDQLSQQLEDLKKGKLNGFQSYNGKLTGPAAVELKRLYQELQIRNQLNQEQNSKLQQQKELLNKRNMEVAMMDKRISELRERLYGKKIQLNRVNGTSSPQSPLSTSGRVAAVGPYIQVPSAGSFPVLGDPIKPQSLSIASNAAHGRSKSANDGNWPTLKQNSSSSVKPVQVAGADWKDPSVEGSVKQGTVSSQPVPFSALGPTEKPGIEIGKVPPPIPGVGKQLPPSYGTYPSPTPLGPGSTSSLERRKEGSLPRPSAGLPSRQRPTLLPATGSTPQPGSSQQIQQRISVPPSPTYPPAGPPAFPAGDSKPELPLTVAIRPFLADKGSRPQSPRKGPQTVNSSSIYSMYLQQATPPKNYQPAAHSALNKSVKAVYGKPVLPSGSTSPSPLPFLHGSLSTGTPQPQPPSESTEKEPEQDGPAAPADGSTVESLPRPLSPTKLTPIVHSPLRYQSDADLEALRRKLANAPRPLKKRSSITEPEGPGGPNIQKLLYQRFNTLAGGMEGTPFYQPSPSQDFMGTLADVDNGNTNANGNLEELPPAQPTAPLPAEPAPSSDANDNELPSPEPEELICPQTTHQTAEPAEDNNNNVATVPTTEQIPSPVAEAPSPGEEQVPPAPLPPASHPPATSTNKRTNLKKPNSERTGHGLRVRFNPLALLLDASLEGEFDLVQRIIYEVEDPSKPNDEGITPLHNAVCAGHHHIVKFLLDFGVNVNAADSDGWTPLHCAASCNSVHLCKQLVESGAAIFASTISDIETAADKCEEMEEGYIQCSQFLYGVQEKLGVMNKGVAYALWDYEAQNSDELSFHEGDALTILRRKDESETEWWWARLGDREGYVPKNLLGLYPRIKPRQRTLA
For B2, in test [1], the “effect on apoptotic function of p53 mutants 181L and 181C” value is “failed to enhance the apoptotic function of either p53 mutant”; the “increase in percentage of cells that die of apoptosis with E2F1” value is recorded as “only an additive increase”; the “apoptotic function of p63γ and p73α” value is “enhanced the apoptotic function of p63γ and p73α”; the “apoptosis when expressed alone” value is recorded as “lower level of apoptosis”. The “effect on apoptosis induced by p53H175-L” value in test [1] was “failed to enhance the apoptotic function of p53H175-L”. In addition, the “transfected cells that die of apoptosis” value in test [1] (co-expressed with p53, Example 6, FIGS. 4A and 4C) is listed as “Approximately 50%”. In test [2], the “stimulation of the transactivation function of p73α on the Bax promoter” value stood at 3 fold and the “transactivation function of p73α on the mdm2 promoter” value was “failed to stimulate”. The “transactivation function of p63γ on the mdm2 promoter” value in test [3] is “failed to stimulate”. Also, the “apoptosis on expression in cells with endogenous wild-type p53” value in test [4] is recorded as “induced apoptosis”.
